Source: US8669345

How the values were obtained:
sNogoR310-Fc (rat) = sNogoR310-Fc (rat) (UniProt Q99M75); test: SPA, unlabelled Nogo1-40 (x axis Nogo1-40 [M]) displacing 125I-Nogo1-40-C from sNogoR310-Fc; the unit stands on the axis, not in the table
[1] = biological target: sNgR310 (recombinant fragment of rat NgR1, aa 27-310) (rat) (UniProt Q99M75); test: SPA, unlabelled Nogo66 (x axis Nogo66 Conc [M]) displacing 125I-Nogo66 from sNogoR310; Bound SPA cpm falls from about 2900 to about 2050; the unit stands on the axis, not in the table
Nogo1-40 = test: SPA competition: Ig-sNogoR1-310 added in rising amount [ug] against binding of 125I-Nogo1-40-C to sNogoR310
Chain of Nogo1-40 (Q9NQC3 1055-1094): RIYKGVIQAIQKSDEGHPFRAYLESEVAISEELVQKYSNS

Chain of Nogo1-40 (peptide) (Q9NQC3 1055-1094): as above
Chain of sNgR310 (recombinant fragment of rat NgR1, aa 27-310) (rat) (Q99M75 other isoform, or with tags, fused parts or gaps): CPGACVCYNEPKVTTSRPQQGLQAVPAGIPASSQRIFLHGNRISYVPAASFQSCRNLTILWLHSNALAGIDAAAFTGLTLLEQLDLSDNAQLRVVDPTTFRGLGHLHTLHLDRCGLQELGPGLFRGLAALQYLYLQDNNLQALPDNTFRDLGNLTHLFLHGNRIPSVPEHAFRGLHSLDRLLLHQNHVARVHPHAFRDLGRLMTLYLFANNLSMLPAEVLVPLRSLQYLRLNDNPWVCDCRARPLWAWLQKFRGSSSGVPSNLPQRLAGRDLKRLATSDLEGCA
Chain of sNogoR310-Fc (rat) (Q99M75 other isoform, or with tags, fused parts or gaps): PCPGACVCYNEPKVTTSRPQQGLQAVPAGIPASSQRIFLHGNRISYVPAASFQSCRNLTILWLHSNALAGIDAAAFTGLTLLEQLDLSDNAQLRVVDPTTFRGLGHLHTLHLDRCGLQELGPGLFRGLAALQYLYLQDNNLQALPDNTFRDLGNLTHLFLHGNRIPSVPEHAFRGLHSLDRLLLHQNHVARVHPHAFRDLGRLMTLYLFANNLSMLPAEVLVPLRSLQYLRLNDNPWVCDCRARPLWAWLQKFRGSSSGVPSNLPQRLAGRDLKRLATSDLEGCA

Substance: Nogo1-40 (peptide)
- EC50 (sNogoR310-Fc (rat)): 120 nM

Substance: Nogo66 (ligand)
- EC50 [1]: 303 nM

Substance: sNogoR310-Fc (from UniProt Q99M75 26-310) (Fc fusion)
- IC50 (Nogo1-40): 100 nM
